In paper PMC5921579:

Substrate: O=P(O)(O)O[C@@H]1[C@H](O)[C@H](O)[C@@H](OP(=O)(O)O)[C@H](OP(=O)(O)O)[C@H]1O
Experiment: ADP luciferase assay, nonlinear regression
Type: biochemical, Trypanosoma brucei
Conditions: 200 µM ATP, 2 mM MgCl2, 20 mM HEPES, 150 mM NaCl, pH 7.5, 37°C

B1: T. brucei IPMK (rIPMK, rTbIPMK) (Trypanosoma brucei brucei TREU927) (protein)
chain: MLNICQNLSSVAKPDLIVVSGHKCNIQRGPQTSIGTPTITKRVTAWEALIYLEMLLAEDEAFAILATFVPPLVALLPPENFASDNWVYVHDPASRPLLKSIFAQLKQMSADTHGYNEVMDTTRWEIILVDVTATFHKPCVLDIKLGYVRHSPHTLPDKVERIHKRQLRRSQPIRFCGAHHQFCRQNNDIGECFELEEFTKDMGYALETEESHRRALRSFFTTASLMTTSNTNETTIIDDRHAMARSRCCRQRVQKLVDFLKGHLGQMLLERIAFVSASLLIVYDATGCCGRNVTVSEGINSMNDMVNVYLIDFSRSGDRRLHFPEEVVGFVQGLEKIIFLLS
  Km: 61.41 (±15.37) µM
  Vmax: 617 µmol/min/mg
  kcat/Km: 167000 M⁻¹ s⁻¹
